Results from patent US6300088A, “Method of detecting prostate specific antigen” (Duke University, priority 1998, dated 2001).
No end group written: not given here.

How the values were obtained:
[1] = Plasma elimination studies in CD-1 mice (radioiodinated protein or peptide injected into the lateral tail vein)
Method: (§1) Plasma Elimination Studies--This procedure has been described in detail elsewhere. […] In brief, approximately 1.0 μg of radioiodinated protein or peptide was injected into the lateral tail vein of CD-1 mice. Blood samples of 25 μl were collected at timed intervals via retroorbital puncture. The initial time point, taken 5-10 seconds after injection, was considered to represent 100% radioactivity in circulation. Each preparation was studied at least in triplicate.

[2] = mouse, in vivo, iv
Method: as §1

[3] = Tissue distribution of radioactivity in organs after the plasma elimination experiments (γ-counter); type: in vivo; settings: mouse, after plasma elimination experiment; FIG. 5
Source text: Each preparation was studied at least in triplicate.
Following the plasma elimination experiments the organs of the test mice were examined for radioactivity using a γ-counter.

^125 I-α1 -ACT.cndot.PSA complexes: complex of prostate specific antigen with the protease inhibitor α1-antichymotrypsin
half-life of removal from the mouse circulation ([1]; i.v. lateral tail vein, labelled complex injected alone): approximately 20 minutes | half life in mouse circulation on coinjection with excess unlabeled complex ([1]; i.v., coinjected with a large excess of unlabeled α1-ACT·PSA complexes): several hours | half life of complex compared to native α1-ACT ([1]; mouse, i.v., FIG. 3): significantly reduced

Ala-Pro-Leu-Ile-Leu-Ser-Arg (APLILSR; not fully specified; printed as Ala-Pro-Leu-Ile-Leu-Ser-Arg) [activation peptide]
effect of excess unlabelled activation peptide on clearance rate / half-life [2]: not significantly affected | plasma elimination half-life of the peptide [2]: less than 2 minutes

B1: ^125 I-α1 -ACT: α1-antichymotrypsin, purified as previously described (Salvesen et al.) (protein, UniProt P01011 24-423, looked up)
Alpha-1-antichymotrypsin: HPNSPLDEENLTQENQDRGTHVDLGLASANVDFAFSLYKQLVLKAPDKNVIFSPLSISTALAFLSLGAHNTTLTEILKGLKFNLTETSEAEIHQSFQHLLRTLNQSSDELQLSMGNAMFVKEQLSLLDRFTEDAKRLYGSEAFATDFQDSAAAKKLINDYVKNGTRGKITDLIKDLDSQTMMVLVNYIFFKAKWEMPFDPQDTHQSRFYLSKKKWVMVPMMSLHHLTIPYFRDEELSCTVVELKYTGNASALFILPDQDKMEEVEAMLLPETLKRWRDSLEFREIGELYLPKFSISRDYNLNDILLQLGIEEAFTSKADLSGITGARNLAVSQVVHKAVLDVFEEGTEASAATAVKITLLSALVETRTIVRFNRPFLMIIVPTDTQNIFFMSKVTNPKQA
modifications: 125I label
half life in mouse circulation ([1]; i.v. lateral tail vein, injected alone, estimated): several hours | organs with predominant radioactivity (tissue distribution) [3]: bladder and kidney
